Measurements taken from the supplement of paper PMC5998384.

Experiments:
[1] = tested on: HeLa Kyoto; test: melting temperature (median over replicates), in situ; higher = more thermally stable
[2] = tested on: HeLa Kyoto; test: solubility in G1/S (NP-40 vs SDS abundance) (log2 ratio); higher = more soluble; conditions: cell cycle stage: G1/S
[3] = tested on: HeLa Kyoto; test: thermal stability score vs G1/S (z-score of summed log2 fold changes over temperatures); higher = more thermally stable than in G1/S
[4] = tested on: HeLa Kyoto; test: solubility change mitosis vs G1/S (difference of NP-40 vs SDS log2 ratios) (log2 ratio difference); higher = more soluble in mitosis
[5] = cell cycle stage: early G1 (4.5 h after nocodazole release)
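For melting temperature (median over replicates), in situ in this document: HeLa Kyoto cells synchronized by double thymidine or nocodazole block, proteins quantified by TMT10plex mass spectrometry, three independent biological replicates.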
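For solubility change mitosis vs G1/S (difference of NP-40 vs SDS log2 ratios) in this document: synchronized HeLa Kyoto cells (double thymidine block for G1/S, nocodazole release for mitosis), protein amounts in NP-40 versus SDS lysates quantified by mass spectrometry, three biological replicates.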
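For solubility in G1/S (NP-40 vs SDS abundance) in this document: HeLa Kyoto cells arrested at G1/S by double thymidine block, proteins quantified by TMT10plex mass spectrometry in mild NP-40 versus SDS extracts, three biological replicates.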
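For thermal stability score vs G1/S (z-score of summed log2 fold changes over temperatures) in this document: synchronized HeLa Kyoto cells, proteins quantified by TMT10plex mass spectrometry, three biological replicates, mitosis taken 0.5 h after nocodazole release, G1/S directly after double thymidine block.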

MPVVRKIFRRRRGDSESEEDEQDSEEVRLKLEETREVQNLRKRPNGVSAVALLVGEKVQEETTLVDDPFQMKTGGMVDMKKLKERGKDKISEEEDLHLGTSFSAETNRRDEDADMMKYIETELKKRKGIVEHEEQKVKPKNAEDCLYELPENIRVSSAKKTEEMLSNQMLSGIPEVDLGIDAKIKNIISTEDAKARLLAEQQNKKKDSETSFVPTNMAVNYVQHNRFYHEELNAPIRRNKEEPKARPLRVGDTEKPEPERSPPNRKRPANEKATDDYHYEKFKKMNRRY [C9ORF78]
melting temperature ([1]; cell cycle stage: G1/S): 57.3 °C | melting temperature ([1]; cell cycle stage: mitosis): 55.1 °C | solubility in G1/S (log2) [2]: 0.501 | thermal stability score [3, 5]: -2.13 | thermal stability score ([3]; cell cycle stage: mitosis): -4.34 | solubility change mitosis (log2) [4]: 0.0516

MSGCRVFIGRLNPAAREKDVERFFKGYGRIRDIDLKRGFGFVEFEDPRDADDAVYELDGKELCSERVTIEHARARSRGGRGRGRYSDRFSSRRPRNDRRNAPPVRTENRLIVENLSSRVSWQDLKDFMRQAGEVTFADAHRPKLNEGVVEFASYGDLKNAIEKLSGKEINGRKIKLIEGSKRHSRSRSRSRSRTRSSSRSRSRSRSRSRKSYSRSRSRSRSRSRSKSRSVSRSPVPEKSQKRGSSSRSKSPASVDRQRSRSRSRSRSVDSGN [SRSF5]
melting temperature ([1]; cell cycle stage: G1/S): 51.3 °C | melting temperature ([1]; cell cycle stage: mitosis): 51.5 °C | solubility in G1/S (log2) [2]: -0.33 | thermal stability score [3, 5]: 1.65 | thermal stability score ([3]; cell cycle stage: mitosis): -4.18 | solubility change mitosis (log2) [4]: 0.302

MSCPVPACCALLLVLGLCRARPRNALLLLADDGGFESGAYNNSAIATPHLDALARRSLLFRNAFTSVSSCSPSRASLLTGLPQHQNGMYGLHQDVHHFNSFDKVRSLPLLLSQAGVRTGIIGKKHVGPETVYPFDFAYTEENGSVLQVGRNITRIKLLVRKFLQTQDDRPFFLYVAFHDPHRCGHSQPQYGTFCEKFGNGESGMGRIPDWTPQAYDPLDVLVPYFVPNTPAARADLAAQYTTVGRMDQGVGLVLQELRDAGVLNDTLVIFTSDNGIPFPSGRTNLYWPGTAEPLLVSSPEHPKRWGQVSEAYVSLLDLTPTILDWFSIPYPSYAIFGSKTIHLTGRSLLPALEAEPLWATVFGSQSHHEVTMSYPMRSVQHRHFRLVHNLNFKMPFPIDQDFYVSPTFQDLLNRTTAGQPTGWYKDLRHYYYRARWELYDRSRDPHETQNLATDPRFAQLLEMLRDQLAKWQWETHDPWVCAPDGVLEEKLSPQCQPLHNEL [SGSH]
melting temperature ([1]; cell cycle stage: G1/S): 53.5 °C | melting temperature ([1]; cell cycle stage: mitosis): 58 °C | solubility in G1/S (log2) [2]: 0.401 | thermal stability score [3, 5]: -1.28 | thermal stability score ([3]; cell cycle stage: mitosis): -1.81 | solubility change mitosis (log2) [4]: -0.261

MDLSELERDNTGRCRLSSPVPAVCRKEPCVLGVDEAGRGPVLGPMVYAICYCPLPRLADLEALKVADSKTLLESERERLFAKMEDTDFVGWALDVLSPNLISTSMLGRVKYNLNSLSHDTATGLIQYALDQGVNVTQVFVDTVGMPETYQARLQQSFPGIEVTVKAKADALYPVVSAASICAKVARDQAVKKWQFVEKLQDLDTDYGSGYPNDPKTKAWLKEHVEPVFGFPQFVRFSWRTAQTILEKEAEDVIWEDSASENQEGLRKITSYFLNEGSQARPRSSHRYFLERGLESATSL [RNASEH2A]
melting temperature ([1]; cell cycle stage: G1/S): 49.9 °C | melting temperature ([1]; cell cycle stage: mitosis): 50.5 °C | solubility in G1/S (log2) [2]: 0.206 | thermal stability score [3, 5]: 0.166 | thermal stability score ([3]; cell cycle stage: mitosis): 0.422 | solubility change mitosis (log2) [4]: -0.012

EIF4H
melting temperature ([1]; cell cycle stage: G1/S): 51.3 °C | melting temperature ([1]; cell cycle stage: mitosis): 51.9 °C | solubility in G1/S (log2) [2]: 0.374 | thermal stability score [3, 5]: -1.37 | thermal stability score ([3]; cell cycle stage: mitosis): -1.91 | solubility change mitosis (log2) [4]: 0.16

MRTDSGARLEEGHLRPPRALPPVPSQDDIPLSRPKKKKPRTKNTPASASLEGLAQTAGRRPSEGNEPSTKELKEHPEAPVQRRQKKTRLPLELETSSTQKKSSSSSLLRNENGIDAEPAEEAVIQKPRRKTKKTQPAELQYANELGVEDEDIITDEQTTVEQQSVFTAPTGISQPVGKVFVEKSRRFQAADRSELIKTTENIDVSMDVKPSWTTRDVALTVHRAFRMIGLFSHGFLAGCAVWNIVVIYVLAGDQLSNLSNLLQQYKTLAYPFQSLLYLLLALSTISAFDRIDFAKISVAIRNFLALDPTALASFLYFTALILSLSQQMTSDRIHLYTPSSVNGSLWEAGIEEQILQPWIVVNLVVALLVGLSWLFLSYRPGMDLSEELMFSSEVEEYPDKEKEIKASS [TMEM237]
melting temperature ([1]; cell cycle stage: G1/S): 54.9 °C | melting temperature ([1]; cell cycle stage: mitosis): 55.4 °C | solubility in G1/S (log2) [2]: -0.0506 | thermal stability score [3, 5]: -4.81 | thermal stability score ([3]; cell cycle stage: mitosis): -5.57 | solubility change mitosis (log2) [4]: -0.0698

MSLSRSEEMHRLTENVYKTIMEQFNPSLRNFIAMGKNYEKALAGVTYAAKGYFDALVKMGELASESQGSKELGDVLFQMAEVHRQIQNQLEEMLKSFHNELLTQLEQKVELDSRYLSAALKKYQTEQRSKGDALDKCQAELKKLRKKSQGSKNPQKYSDKELQYIDAISNKQGELENYVSDGYKTALTEERRRFCFLVEKQCAVAKNSAAYHSKGKELLAQKLPLWQQACADPSKIPERAVQLMQQVASNGATLPSALSASKSNLVISDPIPGAKPLPVPPELAPFVGRMSAQESTPIMNGVTGPDGEDYSPWADRKAAQPKSLSPPQSQSKLSDSYSNTLPVRKSVTPKNSYATTENKTLPRSSSMAAGLERNGRMRVKAIFSHAAGDNSTLLSFKEGDLITLLVPEARDGWHYGESEKTKMRGWFPFSYTRVLDSDGSDRLHMSLQQGKSSSTGNLLDKDDLAIPPPDYGAASRAFPAQTASGFKQRPYSVAVPAFSQGLDDYGARSMSRNPFAHVQLKPTVTNDRCDLSAQGPEGREHGDGSARTLAGR [BAIAP2]
melting temperature ([1]; cell cycle stage: G1/S): 50.6 °C | melting temperature ([1]; cell cycle stage: mitosis): 51.2 °C | solubility in G1/S (log2) [2]: 0.466 | thermal stability score [3, 5]: 0.524 | thermal stability score ([3]; cell cycle stage: mitosis): 0.515 | solubility change mitosis (log2) [4]: 0.0657
